Data from patent US20100255010A1 (Genentech, published 2010).
Where a chain is given by its changes, count along the chain named.

B1: D1.5-115, mIgG2A (antibody, V domains shown)
VH: EVQLVESGGGLVQPGGSLRLSCAASGFTFTGNWIHWVRQAPGKGLEWVGEISPSGGYTDYADSVKGRFTISADTSKNTAYLQMNSLRAEDTAVYYCARESRVSYEAAMDYWGQGTLVTVSS
VL: DIQMTQSPSSLSASVGDRVTITCRASQEIFPDVAWYQQKPGKAPKLLIYSASSLYSGVPSRFSGSGSGTDFTLTISSLQPEDFATYYCQQAAPTPYTFGQGTKVEIKR
B2: D1.5-113, mIgG2A (antibody, V domains shown)
VH: B1 VH
VL: DIQMTQSPSSLSASVGDRVTITCRASQSLLASHDGTPWVAWYQQKPGKAPKLLIYDASYLYSGVPSRFSGSGSGTDFTLTISSLQPEDFATYYCQQSTFAPYTFGQGTKVEIKR
B3: D1.5-121, mIgG2A (antibody, V domains shown)
VH: B1 VH
VL: B1 VL with E28D, I29V, F30G, P31S, V33L, S53Y, A91S, A92D, T94E
B4: DL11b (bispecific antibody, V domains shown)
VH: B1 VH with F29L, T30S, N32D, V48L, P53A, S54A, Y104F
VL: B1 VL with E28N, F30A, P31T, S53F, A91S, A92E, T94E
B5: D1.5-116, mIgG2A (antibody, V domains shown)
VH: B1 VH
VL: B1 VL with E28A, F30A, P31S, S53F, A91S, A92E, T94E

What was measured:
[1] = molecular target: T1, HER3-ECD-Fc (human, UniProt P21860 20-643, limits assumed); assay: radioligand blocking assay: antibody pre-bound to captured HER3-ECD-Fc, then 125I-HRG added; bound counts as % of control
T1 construct: extracellular domain; also called HER3-FC; HER3-IgG

[2] = molecular target: HER3 (form of the protein in the assay not stated) (UniProt P21860 20-643, limits assumed); assay: SPR BIAcore

IC50 (read off the curve) [1] | binding result [2] | Binder
~3 nM |  | B1
~3 nM |  | B2
~5 nM |  | B3
 | binds | B4
~4 nM |  | B5
